What was measured:
(His)6-Raf-1 [1] = biological target: T1, (His)6-Raf-1 (Homo sapiens, UniProt P04049); assay: Totally cell-free system: binding of bacterially produced (His)6-Raf-1 to FLAG-HMK-IL-2Rβ chain fusion proteins, anti-Raf-1 immunoblot; details: for amount of Raf-1 proteins bound, % of the positive control value (Raf-1 binding to FLAG-HMK-IL-2Rβ chain WT): estimated using Hewlett Packard ScanJet
T1 construct: made in house; host or cells: M15 bacteria (E. coli), pQE-30
Procedure: For the construction of the (His)6-Raf-1 expression plasmid, PCR was performed using the […] cDNA as template and oligonucleotide primers designed to facilitate cloning into the pQE-30 plasmid according to the manufacturer's protocol (QIAGEN, QIAexpressionist; Chatsworth, CA). (His)6-Raf-1 protein was produced in M15 bacteria by IPTG induction, and purified on Ni-NTA resin (QIAGEN). Affinity purification yielded a 72-74 kD protein which was recognized by anti Raf-1 antibody.
Accordingly, in this totally cell-free assay, FLAG-HMK-IL-2Rβ chain wild type and deletion mutants lacking at least one of several defined domains of the IL-2Rβ chain (see Example 1) were used to identify the IL-2Rβ chain domain involved in Raf-1 binding. Assay conditions were similar to those described in Example 1. Briefly, bacterially produced proteins: FLAG-HMK-IL-2Rβ chain wild type (WT), FLAG-HMK-IL-2Rβ chain containing only proline rich C-terminal (CT^+), FLAG-HMK-IL-2Rβ chain mutants lacking:serine rich region (S^−), acidic domain (A^−), acidic domain and proline rich C-terminal (A^−CT^−) were incubated with bacterially produced (His)6-Raf-1 (for all constructs see FIG. 1) followed by adsorption of FLAG-HMK-IL-2Rβ chain/Raf-1 complexes on anti-FLAG affinity beads. After extensive washing, IL-2Rβ chain/Raf-1 complexes were competitively eluted from anti-FLAG beads using buffer containing FLAG peptide. Eluted proteins were separated on SDS-PAGE, transferred onto Immobilon membrane and blotted with anti-Raf-1 antibody.

[2] = tested on: T-cell derived, active serine/threonine kinase; assay: Protein kinase reaction on anti-FLAG beads coated with FLAG-HMK-IL-2Rβ chain proteins and exposed to T-cell lysates; type: biochemical, human; details: for level of (His)6-Mek-1 kinase phosphorylation: kinase defective (His)6-Mek-1 as substrate; for serine/threonine kinase activity, phosphorylation of p70 protein: no exogenously added substrate
Excerpt: FLAG-HMK-IL-2Rβ chain wild type and deletional mutants lacking certain defined domains of the IL-2Rβ chain (see Examples 1 and 2 and FIG. 1) were used to identify IL-2Rβ chain domain involved in binding T-cell derived, active serine/threonine kinase. Assay conditions were similar to those noted above. […] FLAG-HMK- fusion proteins coated beads were further used as affinity reagents to absorb proteins present in T-cell lysates. T-cell derived proteins bound to FLAG-MHK fusion proteins were then tested for serine/threonine kinase activity in the absence or presence of exogenous substrates: Histone H-1 or (His),-Mek-1. Products of kinase reactions were boiled in SDS-PAGE sample buffer followed by separation on SDS-PAGE, transfer onto Immobilon membrane and autoradiography. The following are the experiments that were carried out and their results: […]

[3] = biological target: T2, Raf-1 proteins present in T-cell lysates (Homo sapiens, UniProt P04049); assay: Cell-free system: binding of Raf-1 from T-cell lysates to FLAG-HMK-IL-2Rβ chain fusion proteins on anti-FLAG beads, anti-Raf-1 immunoblot; set-up: decrease of Raf-1 binding in comparison to WT control: unit not given here; details: T-cell lysates, anti-Raf-1 immunoblot; for binding of T-cell derived Raf-1 proteins: affinity beads coated with fusion protein
T2 construct: endogenous in cells; host or cells: PHA-stimulated human peripheral blood mononuclear cells (T cells), lysate
Excerpt: (ii) In order to study the interaction of IL-2Rβ chain with intracellular molecules, the FLAG-HMK-IL-2Rβ chain cytoplasmic domain fusion protein was purified from bacterial lysate using the M2 anti-FLAG monoclonal antibody in a standard affinity chromatography procedure. More specifically, bacterial lysate proteins were absorbed onto anti-FLAG (M2) affinity column (IBI-Kodak, New Haven, Conn., USA). After washing the column, the adsorbed proteins were eluted with either glycine buffer (pH 3) or FLAG peptide (10^−4M). Proteins in various fractions were analyzed for expected size (about 33 kDa) and purity after separation on SDS-PAGE and Commassie blue staining. The presence of a functional HMK recognition site was confirmed by phosphorylation of the purified 33 kDa IL-2Rβ chain fusion protein by HMK. More specifically, the eluted fusion proteins were tested for susceptibility to phosphorylation by incubation with the catalytic subunit of bovine heart muscle kinase (Sigma) (1 U/ul) in buffer containing 20 mM Tric-HCl, pH 7.5, 1 mM DTT, 100 mM NaCl, 10 mM MgCl2 and 1μCi [γ^32p] ATP for 30 min at 37° C. followed by SDS-PAGE and autoradiography. Purified FLAG-HMK-IL-2Rβ chain fusion proteins were used as an affinity reagent to probe for cytosolic proteins present in lysates of human T cells, metabolically labeled with [^35S ]-methionine, that bind to the IL-2Rβ chain. […] For [^35S]-methionine labeling, the cells were suspended at 4×10^7 cells/ml at 37° C. followed by addition of 0.5 mCi of [^35S]-methionine for 4 hours prior to lysis in Dounce homogenization buffer and application of the lysate to the affinity column. Several [^35S]-labeled proteins were retained by the FLAG-HMK-IL-2Rβ chain cytosolic domain fusion protein bound to the affinity column. One of these proteins was identified as Raf-1 by immunoblotting using a polyclonal antibody specific for the SP-63 peptide which corresponds to the C-terminal fragment of Raf-1. A molar excess of the competing SP-63 peptide blocked binding of the anti-SP-63 antibody to Raf-1.
Using the basic cell-free system described above, a number of FLAG-HMK-IL-2Rβ chain wild type FLAG-HMK-IL2Rβ chain deletion mutant proteins were then studied with respect to this specific interaction with Raf-i proteins present in T-cell lysates. These FLAG-HMK-IL2Rβ chain wild type (WT) and deletion mutants lacking certain defined domains of the IL-2Rβ chain were used to identify the IL-2Rβ chain domain involved in Raf-1 binding. Assay conditions were similar to those described above. […] In FIG. 1, there is shown, schematically, all of the constructs, i.e., FLAG-HMK-IL-2Rβ chain fusion proteins produced in transformed bacterial cells and used in this study. These FLAG-HMK- fusion proteins-coated beads were then used as affinity reagents to absorb Raf-1 proteins present in T-cell lysates. T-cell derived proteins bound to FLAG-HMK fusion proteins were then eluted using buffer containing FLAG peptide, separated on SDS-PAGE, transferred onto Immobilon membrane and blotted with anti-Raf-1 antibody.
The absorbed proteins were washed, eluted with FLAG peptide and probed for the presence of Raf-1 and 14-3-3 proteins on immunoblots. […] Washed cells (about 4×10^7) were lysed in Dounce homogenization buffer, centrifuged (15×10^3 xg for 15 min.) and supernatants applied onto washed anti-FLAG (M2) affinity column (IBI-Kodak) coated with bacterial lysates interacted with one of the FLAG-HMK fusion proteins. […]

(His)6-Raf-1 [4] = biological target: T1, (His)6-Raf-1; assay: Kinase activity toward Mek-1 after interaction of FLAG-HMK-IL-2Rβ chain with bacterially produced (His)6-Raf-1; type: biochemical; details: interaction with (His)6-Raf-1; enzymatically inactive (His)6-Mek-1 substrate
Procedure: Bacterial lysates containing FLAG-HMK-IL-2Rβ chain wild type and (His)6-Raf-1 proteins were used (see Example 2) to test the hypothesis that the IL-2Rβ chain induces catalytic activity of Raf-1. Assay conditions were similar to those described above. Briefly, bacterially produced proteins: FLAG-HMK-IL-2Rβ chain wild type (WT) or FLAG-HMK (negative control) (for all constructs see FIG. 1) were incubated with bacterial lysates containing either (His)6-Raf-1 or (His)6 (negative control) followed by the absorption of protein complexes on anti-FLAG affinity beads. […] Products of kinase reactions were boiled in SDS-PAGE sample buffer followed by separation on SDS-PAGE, transfer onto Immobilon membrane and autoradiography.

amount of Raf-1 proteins bound, % of the positive control value (Raf-1 binding to FLAG-HMK-IL-2Rβ chain WT) ((His)6-Raf-1 [1]) | decrease of Raf-1 binding in comparison to WT control [3] | binding of T-cell derived Raf-1 proteins [3] | binding of Raf-1 proteins ((His)6-Raf-1 [1]; anti-Raf-1 immunoblot) | Molecule | level of (His)6-Mek-1 kinase phosphorylation [2] | serine/threonine kinase activity, phosphorylation of p70 protein [2] | induction of kinase activity toward Mek-1 kinase ((His)6-Raf-1 [4])
17-50% | 50-80 |  |  | FLAG-HMK-IL-2Rβ chain mutant A-: FLAG-HMK-IL-2Rβ chain mutant lacking the acidic domain (protein, left off: small tags and cut ends, FLAG-HMK-IL-2Rβ chain mutant lacking the acidic domain) NCRNTGPWLKKVLKCNTPDPSKFFSQLSSEHGGDVQKWLSSPFPSSSFSPGGLAPEISPLEVLERDKVTQLLLQPLSGEDDAYCTFPSRDDLLLFSPSLLGGPSPPSTAPGGSGAGEERMPPSLQERVPRDWDPQPLGPPTPGVPDLVDFQPPPELVLREAGEEVPDAGPREGVSFPWSRPPGQGEFRALNARLPLNTDAYLSLQELQGQDPTHLV | Background levels | no phosphorylated band p70 | 
0% |  | no binding |  | mutant A^−CT^−: FLAG-HMK-IL-2Rβ chain mutant lacking both acidic domain and proline rich C-terminal (protein, left off: small tags and cut ends, FLAG-HMK-IL-2Rβ chain mutant lacking both acidic domain and proline rich C-terminal) NCRNTGPWLKKVLKCNTPDPSKFFSQLSSEHGGDVQKWLSSPFPSSSFSPGGLAPEISPLEVLERDKVTQLLL | Background levels | no phosphorylated band p70 | 
0%-10% |  | no binding |  | FLAG-HMK-IL-2Rβ chain CT^+: FLAG-HMK-IL-2Rβ chain containing only the proline rich C-terminal (protein, left off: small tags and cut ends, FLAG-HMK-IL-2Rβ chain containing only the proline rich C-terminal) QPLSGEDDAYCTFPSRDDLLLFSPSLLGGPSPPSTAPGGSGAGEERMPPSLQERVPRDWDPQPLGPPTPGVPDLVDFQPPPELVLREAGEEVPDAGPREGVSFPWSRPPGQGEFRALNARLPLNTDAYLSLQELQGQDPTHLV | Background levels | no phosphorylated band p70 | 

Molecule | amount of Raf-1 proteins bound, % of the positive control value (Raf-1 binding to FLAG-HMK-IL-2Rβ chain WT) ((His)6-Raf-1 [1]) | decrease of Raf-1 binding in comparison to WT control [3] | binding of T-cell derived Raf-1 proteins [3] | binding of Raf-1 proteins ((His)6-Raf-1 [1]; anti-Raf-1 immunoblot) | level of (His)6-Mek-1 kinase phosphorylation [2] | serine/threonine kinase activity, phosphorylation of p70 protein [2] | induction of kinase activity toward Mek-1 kinase ((His)6-Raf-1 [4])
FLAG-HMK-IL-2Rβ chain WT: bacterially produced fusion protein: FLAG epitope, HMK site and wild type IL-2Rβ chain cytoplasmic domain (protein, left off: small tags and cut ends) NCRNTGPWLKKVLKCNTPDPSKFFSQLSSEHGGDVQKWLSSPFPSSSFSPGGLAPEISPLEVLERDKVTQLLLQQDKVPEPASLSSNHSLTSCFTNQGYFFFHLPDALEIEACQVYFTYDPYSEEDPDEGVAGAPTGSSPQPLQPLSGEDDAYCTFPSRDDLLLFSPSLLGGPSPPSTAPGGSGAGEERMPPSLQERVPRDWDPQPLGPPTPGVPDLVDFQPPPELVLREAGEEVPDAGPREGVSFPWSRPPGQGEFRALNARLPLNTDAYLSLQELQGQDPTHLV |  |  | bind T-cell derived Raf-1 proteins equally well | bind Raf-1 proteins equally well | increase | bind T-cell derived protein(s) expressing serine/threonine kinase activity | did not result in the induction of kinase activity

Source: patent US20010016194A1 (priority 1999, published 2001)
